B1: mAb100 (antibody, V domains shown)
VH: QVQLQESGPGLVKPSDTLSLTCTVSGGSLSSFYWSWIRQPPGKGLEWIGYIYYSGSPNYSPSLESRVTMSVDTTRNQISLKLDSVTAADTAVYYCVRASRSYYWGSYRPTAFDSWGQGTLVTVSS
VL: YELTQPLSVSVSPGQTAIFTCSGDNLGDKYVCWFQQRPGQSPMLLIYQDNKRPSGIPERFSGSNSGNTATLTISGTQSTDEADYYCQTWDSTVVFGGGTKLTVL
B2: ADI-15946 (antibody, V domains shown)
VH: EVQLVESGGGLVKPGGSLRLSCAASGFTFSNAWMSWVRQAPGKGLEWVGRIKSKTDGGTIDYAAPVKGRFTISRDDSKNTVYLQMTSLKTEDTAVYYCTTYTEDMRYFDWLLRGGETFDYWGQGTLVTVSS
VL: DIRLTQSPSSLSASVGDRVTITCRASHYISTYLNWYQQKPGKAPKLLIYAASNLQSGVPSRFSGSGFGTDFSLTISSLQPEDFATYHCQQSYSTPGRYTFGQGTKVEIK
notes: also called PE-64
B3: CA45 (antibody, V domains shown)
VH: QVQLQEWGEGLVKPSETLSLTCAVYGGSISGYYHWNWIRLPPGKGLEWIGNIDGNSASTNYNPSLKTRVTISKDTSKNQISLKVRSLTAADTAVYYCARDPGFTIFGVVITSWSGLDSWGQGAVVTVSS
VL: DIQMTQSPSSLSASVGDTVTITCRASQSISNNLAWYQQRPRRAPQLLIYAASNLASGVPSRFSGSGSGTDFTLTISSLQAEDFAAYYCQQHNTLPLTFGGGTKVEIK
B4: mAb114 (antibody, V domains shown)
VH: EVQLVESGGGLIQPGGSLRLSCAASGFALRMYDMHWVRQTIDKRLEWVSAVGPSGDTYYADSVKGRFAVSRENAKNSLSLQMNSLTAGDTAIYYCVRSDRGVAGLFDSWGQGILVTVSS
VL: DIQMTQSPSSLSASVGDRITITCRASQAFDNYVAWYQQRPGKVPKLLISAASALHAGVPSRFSGSGSGTHFTLTISSLQPEDVATYYCQNYNSAPLTFGGGTKVEIK
notes: source: supplied in purified form (Integrated Biotherapeutics)
B5: KZ52 (antibody, V domains shown)
VH: EVQLLESGGGLVKPGGSLRLSCAASGFTLINYRMNWVRQAPGKGLEWVSSISSSSSYIHYADSVKGRFTISRDNAENSLYLQMNSLRAEDTAVYYCVREGPRATGYSMADVFDIWGQGTMVTVSS
VL: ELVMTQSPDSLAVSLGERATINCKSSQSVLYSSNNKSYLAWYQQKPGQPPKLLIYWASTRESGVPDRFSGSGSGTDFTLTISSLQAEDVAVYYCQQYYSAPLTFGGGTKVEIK
notes: as for B4
B6: ADI-15878 (antibody, V domains shown)
VH: QVQLVQSGVTLVQPGGSLRVSCAASGFTFSSYAMSWVRQAPGKGLEWVSAISGLGGSTYYADSVKGRFTISRDNSKNTLYLQMNSLRAEDTAVYYCAKDHRVWAAGYHFDYWGQGALVTVSS
VL: DIVLTQSPSTLSASVGDRVTITCRASQSISSWLAWYQQKPGEAPKLLISDASSLESGVPSRFSGSGSGTEFTLTISSLQPDDFATYYCQQYYSSPIFGGGTKVEIK
notes: also called PE-87; Control PE-87; source: supplied in purified form (Integrated Biotherapeutics)

Molecular target: T1, Ebola virus glycoprotein (EBOV GP), trimer of the GP1 + GP2 heterodimer lacking the transmembrane domain (Ebola virus, Mayinga strain, UniProt Q05320)
T1 construct: also called soluble Ebola virus glycoprotein; EBOV GP trimer complex of GP1 + GP2 heterodimer; source: Drosophila S2 cells; supplied by Integrated Biotherapeutics, purified
Experiment: SPR
Conditions: both partners purified
T1 sequence (Q05320 33-637, one chain of several): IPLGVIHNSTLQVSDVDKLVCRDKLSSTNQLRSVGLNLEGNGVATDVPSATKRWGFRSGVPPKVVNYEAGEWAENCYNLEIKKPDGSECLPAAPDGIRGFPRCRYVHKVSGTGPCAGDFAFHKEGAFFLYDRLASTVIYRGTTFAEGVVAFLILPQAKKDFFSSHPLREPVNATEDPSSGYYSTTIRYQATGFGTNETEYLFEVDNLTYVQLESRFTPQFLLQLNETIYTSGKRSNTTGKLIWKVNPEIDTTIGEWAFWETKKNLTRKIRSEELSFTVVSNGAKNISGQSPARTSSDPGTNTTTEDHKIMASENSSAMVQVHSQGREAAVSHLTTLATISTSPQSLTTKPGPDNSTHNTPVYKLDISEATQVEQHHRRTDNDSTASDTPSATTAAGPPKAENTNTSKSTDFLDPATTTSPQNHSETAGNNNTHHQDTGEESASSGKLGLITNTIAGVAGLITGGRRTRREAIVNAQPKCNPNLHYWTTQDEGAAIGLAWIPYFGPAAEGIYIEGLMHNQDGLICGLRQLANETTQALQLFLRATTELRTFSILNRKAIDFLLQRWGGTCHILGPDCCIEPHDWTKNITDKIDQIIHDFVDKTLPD

Q: Does B1 bind?
A: binds

Q: Does B2 bind?
A: binds

Q: Does B3 bind?
A: binds

Molecular target: T2, Ebola virus glycoprotein (EBOV GP), trimer of the GP1 + GP2 heterodimer lacking the transmembrane domain (Ebola virus, Mayinga strain, UniProt Q05320)
T2 construct: also called soluble Ebola virus glycoprotein; EBOV GP trimer complex of GP1 + GP2 heterodimer; source: Drosophila S2 cells; supplied by Integrated Biotherapeutics, purified
Experiment: SPR
Conditions: both partners purified
T2 sequence (Q05320 33-637, one chain of several): as above

Q: Does B4 bind?
A: binds

Q: Does B5 bind?
A: binds

Q: Does B6 bind?
A: binds

Source: paper PMC7454256 (Antibody Therapeutics, 2020)
